From PMC9998502, “Functional selectivity of EM-2 analogs at the mu-opioid receptor” (Frontiers in Pharmacology, 2023)

Experiments:
[1] = target: human delta opioid receptor (human) (UniProt P41143)
[2] = target: human kappa opioid receptor (human) (UniProt P41145); assay: radioligand binding; displacement of [3H]U-69593 from commercial membranes of CHO cells transfected with the human recombinant kappa opioid receptor; Ki, mean ± SEM, n ≥ 3
[3] = target: human delta opioid receptor (human) (UniProt P41143); assay: radioligand binding; displacement of [3H]deltorphin-2 from commercial membranes of CHO cells transfected with the human recombinant delta opioid receptor; Ki, mean ± SEM, n ≥ 3
[4] = target: human mu opioid receptor (human) (UniProt P35372)
[5] = target: human mu opioid receptor (human) (UniProt P35372); assay: radioligand binding; displacement of [3H]DAMGO from commercial membranes of CHO cells transfected with the human recombinant mu opioid receptor; Ki, mean ± SEM, n ≥ 3
[6] = target: RLuc-tethered human mu receptor fusion protein (human) (UniProt P35372)
[7] = target: human kappa opioid receptor (human) (UniProt P41145)

Work on DPDPE (peptide) yielded a calcium mobilization, CHO cells with delta receptor and GαqG66Di5: α (Emax ratio to the standard agonist) [1] of 1.
“EM-2 analog 1 (Dmt-Pro-Phe-Phe-NH2) (peptide)” gave a Ki [2] of 830 nM and a Ki [3] of 560 nM.
“EM-2 analog 2 (Tyr-(R)-Pip-Phe-Phe-NH2) (peptide)” showed a calcium mobilization, CHO cells with human mu receptor and Gαqi5: α (Emax ratio to the standard agonist) [4] of 0.64, a Ki [5] of 17.7 nM and a Ki [2] greater than 1000 nM. The Ki [3] was 682 nM and the BRET of mu-RLuc with Gβ1-RGFP promoted by the peptide, SH-SY5Y membranes: Emax (EM-2 = 1.00) [6] was 0.83.
Substance “EM-2 analog 3 (Dmt-(R)-Pip-Phe-Phe-NH2) (peptide)” has a calcium mobilization, CHO cells with human mu receptor and Gαqi5: α (Emax ratio to the standard agonist) [4] of 0.7, a calcium mobilization, CHO cells with delta receptor and GαqG66Di5: α (Emax ratio to the standard agonist) [1] of 0.56 and a Ki [5] of 3.92 nM. It also gave a Ki [2] of 72 nM, a Ki [3] of 37 nM and a BRET of mu-RLuc with Gβ1-RGFP promoted by the peptide, SH-SY5Y membranes: Emax (EM-2 = 1.00) [6] of 0.83.
For “EM-2 analog 4 (Tyr-(R)-Nip-Phe-Phe-NH2) (peptide)”, the calcium mobilization, CHO cells with human mu receptor and Gαqi5: α (Emax ratio to the standard agonist) [4] was 0.99, the Ki [5] was 0.85 nM and the Ki [2] was greater than 1000 nM. The Ki [3] was greater than 1000 nM, the BRET of mu-RLuc with Gβ1-RGFP promoted by the peptide, SH-SY5Y membranes: Emax (EM-2 = 1.00) [6] was 1.11 and the BRET of mu-RLuc with β-arrestin 2-RGFP promoted by the peptide, living SH-SY5Y cells: Emax (EM-2 = 1.00) [6] was 1.3.
Substance “EM-2 analog 5 (Dmt-(R)-Nip-Phe-Phe-NH2) (peptide)” has a calcium mobilization, CHO cells with human mu receptor and Gαqi5: α (Emax ratio to the standard agonist) [4] of 1, a Ki [5] of 0.14 nM and a Ki [2] of 567 nM. It also gave a Ki [3] of 589 nM, a BRET of mu-RLuc with Gβ1-RGFP promoted by the peptide, SH-SY5Y membranes: Emax (EM-2 = 1.00) [6] of 1.11 and a BRET of mu-RLuc with β-arrestin 2-RGFP promoted by the peptide, living SH-SY5Y cells: Emax (EM-2 = 1.00) [6] of 1.26.
Substance “EM-2 analog 6 (Tyr-(R)-β2-Ala-Phe-Phe-NH2) (peptide)” has a calcium mobilization, CHO cells with human mu receptor and Gαqi5: α (Emax ratio to the standard agonist) [4] of 0.88, a Ki [5] of 46.8 nM and a Ki [2] greater than 1000 nM. For the same substance, the Ki [3] was greater than 1000 nM, the BRET of mu-RLuc with Gβ1-RGFP promoted by the peptide, SH-SY5Y membranes: Emax (EM-2 = 1.00) [6] was 0.86 and the BRET of mu-RLuc with β-arrestin 2-RGFP promoted by the peptide, living SH-SY5Y cells: Emax (EM-2 = 1.00), forced to 1 [6] was 1.
“EM-2 analog 7 (Dmt-(R)-β2-Ala-Phe-Phe-NH2) (peptide)” was tested, and the calcium mobilization, CHO cells with human mu receptor and Gαqi5: α (Emax ratio to the standard agonist) [4] was 0.95, the Ki [5] was 0.31 nM and the Ki [2] was 807 nM. The Ki [3] was 571 nM, the BRET of mu-RLuc with Gβ1-RGFP promoted by the peptide, SH-SY5Y membranes: Emax (EM-2 = 1.00) [6] was 0.98 and the BRET of mu-RLuc with β-arrestin 2-RGFP promoted by the peptide, living SH-SY5Y cells: Emax (EM-2 = 1.00) [6] was 0.61.
“EM-2 analog 8 (Tyr-(R)-β3-Ala-Phe-Phe-NH2) (peptide)” showed a calcium mobilization, CHO cells with human mu receptor and Gαqi5: α (Emax ratio to the standard agonist) [4] of 0.99, a Ki [5] of 0.44 nM and a Ki [2] greater than 1000 nM. It also gave a Ki [3] greater than 1000 nM, a BRET of mu-RLuc with Gβ1-RGFP promoted by the peptide, SH-SY5Y membranes: Emax (EM-2 = 1.00) [6] of 0.96 and a BRET of mu-RLuc with β-arrestin 2-RGFP promoted by the peptide, living SH-SY5Y cells: Emax (EM-2 = 1.00) [6] of 1.12.
In the case of “EM-2 analog 9 (Dmt-(R)-β3-Ala-Phe-Phe-NH2) (peptide)”, the calcium mobilization, CHO cells with human mu receptor and Gαqi5: α (Emax ratio to the standard agonist) [4] is reported as 1, the Ki [5] is reported as 0.14 nM and the Ki [2] is reported as 890 nM. For the same substance, the Ki [3] was 286 nM, the BRET of mu-RLuc with Gβ1-RGFP promoted by the peptide, SH-SY5Y membranes: Emax (EM-2 = 1.00) [6] was 1.05 and the BRET of mu-RLuc with β-arrestin 2-RGFP promoted by the peptide, living SH-SY5Y cells: Emax (EM-2 = 1.00) [6] was 1.16.
“EM-2 analog 10 (Tyr-Pro-(R)-β2-1-Nal-Phe-NH2) (peptide)” gave a BRET of mu-RLuc with Gβ1-RGFP promoted by the peptide, SH-SY5Y membranes: Emax (EM-2 = 1.00) [6] of 0.68.
Work on “EM-2 analog 11 (Dmt-Pro-(R)-β2-1-Nal-Phe-NH2) (peptide)” yielded a BRET of mu-RLuc with Gβ1-RGFP promoted by the peptide, SH-SY5Y membranes: Emax (EM-2 = 1.00) [6] of 0.81.
For “EM-2 analog 12 (Tyr-Pro-(R)-β3-1-Nal-Phe-NH2) (peptide)”, the BRET of mu-RLuc with Gβ1-RGFP promoted by the peptide, SH-SY5Y membranes: Emax (EM-2 = 1.00) [6] was 0.96 and the BRET of mu-RLuc with β-arrestin 2-RGFP promoted by the peptide, living SH-SY5Y cells: Emax (EM-2 = 1.00) [6] was 0.73.
“EM-2 analog 13 (Dmt-Pro-(R)-β3-1-Nal-Phe-NH2) (peptide)” was tested, and the BRET of mu-RLuc with Gβ1-RGFP promoted by the peptide, SH-SY5Y membranes: Emax (EM-2 = 1.00) [6] was 0.84 and the BRET of mu-RLuc with β-arrestin 2-RGFP promoted by the peptide, living SH-SY5Y cells: Emax (EM-2 = 1.00) [6] was 0.37.
Substance dynorphin A (peptide) has a calcium mobilization, CHO cells with human kappa receptor and Gαqi5: α (Emax ratio to the standard agonist) [7] of 1.
Substance “endomorphin-2 (Tyr-Pro-Phe-Phe-NH2) (peptide)” has a Ki [2] greater than 1000 nM and a Ki [3] greater than 1000 nM.
